Data as given in patent US20090036382A1, “TGF-Beta Modulators and Use Thereof” (Universita' Degli Studi Di Padova, priority 2006, published 2009).

Columns and labels:
[1] = tested on: TGF-β activated p15 promoter; experiment: p15-lux luciferase reporter in MEF primary cultures from wild type and emilin1 -/- mice; type: cell-based, mouse; conditions: FIG. 3A, 3B
From the text: MEF primary cultures were transfected with plasmid p15-lux (p15-luciferase) (Li et al., 1995) driving transcription of the luciferase marker gene under control of the p15^INK4B gene promoter. Since the p15 promoter is activated by TGF-β (i.e. p15 is a TGF-β target gene), the presence of the growth factor induces higher luciferase levels, which can be measured with a luminometer.

[2] = tested on: pro TGF-β1; experiment: CAGA12-lux luciferase reporter in HEK293T cells co-transfected with pro TGF-β1 vector; type: cell-based, human; conditions: for Effect on luciferase expression induced by pro TGF-β1: CAGA12-lux, co-transfection with pro TGF-β1 vector, FIG. 2B, 2C
From the text: • The construct for emilin 1 expression was engineered in pCS2 vector (Rupp R. A. et al., 1994, Genes Dev 8, 1311-1323) (for a physical map of the vector, see the site faculty.washington.edu/rtmoon/pcs2+.html) as described (Zanetti M. et al., 2004, Mol Cell Biol 24, 638-650); the vector used for proTGF-β expression in MEF and HEK293T cells is pCDNA3.1 (Invitrogen). Vectors containing the coding sequence for human pro TGF-β are described in Young and Murphy-Ullrich, 2004 (Young and Murphy-Ullrich, 2004, J Biol Chem 279, 38032-38039). The human pro TGF-β cDNA sequence is reported in the data bank (NP_000660; protein 000651). • The vector for Furin/SPC 1 expression is pCDNA3.1 (Invitrogen) • p15 and CAGA 12 promoter fragments are described in Jonk L. J. et al., 1998, J Biol Chem 273, 21145-21152 […]. • Constructs containing Flag sequences are described in Young G. D and Murphy-Ullrich J E, 2004, J Biol Chem 279, 38032-38039. • Constructs containing the Flag epitope (e.g. Flag-EMI-domain-GPI) were prepared as described in Chubet R G et al. Biotechniques 1996; 20(1):136-141 and detected by anti-Flag antibody (Kodak Inc.). • Constructs containing the GPI anchor were prepared as described in the Manual “Current Protocols in Cell Biology” Howard R. Petty Wayne State University, Detroit, Mich.; Juan S. Bonifacino, Mary Dasso, Joe B. Harford, Jennifer Lippincott-Schwartz, and Kenneth M. Yamada (eds.), Copyright C 2003 John Wiley & Sons, Inc. (GPI-anchor). In the construct Flag-EMI domain-GPI, the Flag sequence was inserted at the N-terminus after the signal peptide, while the GPI-anchor sequence was placed at the COOH-terminal end. • The construct emilin 1-KDEL was obtained by inserting the KDEL coding sequence described by Munro S., and Pelham, H. R., 1987, Cell 48, 899-907 upstream the emilin 1 STOP codon. • The construct containing the type II TGF-β receptor with HA epitope was described in Wrana J. L. et al., 1994, Nature 370, 341-347. • supplier of the drugs used: SP600125 (Calbiochem), SB431542 (Tocris). • Purified recombinant LAP and TGF-β1 proteins were purchased from (R&D Systems)
To verify how emilin or the EMI domain can contrast TGF-β1 activity independently from receptor binding, HEK293T cells were transfected with a construct coding luciferase placed under control of a TGF-β activated promoter: CAGA12-lux (Jonk et al., 1998) alone or in combination with a emilin1 expression vector (500 ng) as shown in FIG. 2B. After transfection, cells were treated (black bar) or not treated (white bar) with 5 ng/ml recombinant TGF-1 (lanes 1 and 2). Column bars from 3 to 6 report luciferase expression values in experiments with cells co-transfected with the expression vector for emilin1 (or EMI-domain or emilin1ΔEMI) alone (white bars) or in combination with the vector encoding pro TGF-β1 (black bars). Values show the mean±st. dev.
As further validation of the above observations, HEK293T cells were cotransfected with expression plasmids carrying the cDNAs shown in the summary scheme above the figure, along with CAGA12-lux and CMV-lacZ constructs, and luciferase expression levels were measured.

[3] = target: T1, pro TGF-β1 (human TGF-β1 precursor) (human, UniProt P01137 30-390); experiment: co-immunoprecipitation with anti-Flag antibodies from HEK293T cell extracts, western blot with anti-LAP antibodies
T1 construct: Expressed from pCDNA3.1 in HEK293T cells; also called TGF-β precursor; Flag-proTGF-β1
Protocol: To verify whether TGF-β or its precursor is the emilin target, HEK293T cells were transfected with a plasmid encoding pro TGF-β1 alone or with an expression plasmid for Flag-EMI domain-GPI. Cell extracts were prepared and subjected to the immunoprecipitation procedure with anti-Flag antibodies, as described in example 2. Immunoprecipitates were subjected to SDS-PAGE and Western blotting (WB) with anti-LAP antibodies.

T1 sequence (P01137 30-390): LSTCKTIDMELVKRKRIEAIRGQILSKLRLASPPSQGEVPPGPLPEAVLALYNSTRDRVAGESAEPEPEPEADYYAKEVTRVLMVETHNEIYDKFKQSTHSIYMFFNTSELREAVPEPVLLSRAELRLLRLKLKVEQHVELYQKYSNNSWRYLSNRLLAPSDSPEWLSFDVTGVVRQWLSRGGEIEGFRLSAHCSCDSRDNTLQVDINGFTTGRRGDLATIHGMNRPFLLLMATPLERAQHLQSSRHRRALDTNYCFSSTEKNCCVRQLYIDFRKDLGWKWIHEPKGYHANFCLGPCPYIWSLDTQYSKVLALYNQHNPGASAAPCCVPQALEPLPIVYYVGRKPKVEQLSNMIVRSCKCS

Molecule: NC(=O)c1ccc(-c2nc(-c3ccc4c(c3)OCO4)c(-c3ccccn3)[nH]2)cc1 [SB431542]
- p15-lux transcriptional response in normal versus emilin1 -/- MEF cells after drug treatment [1]: a similar response is measured in normal and mutant cells

Molecule: emilin 2: emilin family protein, GenBank NP-114437
- Effect on luciferase expression induced by pro TGF-β1 [2]: antagonize TGF-β activity at the of pro-TGF-β level

B1: Flag-EMI-domain-GPI (emilin-1 EMI domain tagged with the Flag epitope and bound to a GPI anchor) (other, not shown: small tags and cut ends; large carriers)
chain: RHRNWCAYVVTRTVSCVLEDGVETYVKYQPCAWGQPQCPQSIMYRRFLRPRYRVAYKTVTDMEWRCCQGYGGDDCAE
modifications: GPI (glycosylphosphatidylinositol) anchor at the COOH-terminal end
notes: Expressed in transfected HEK293T cells and tested in cell extracts; also called EMI-domain-GPI-anchor; GPI anchored EMI domain
- binding result [3]: binds

B2: multimerin 2: emilin family protein produced by endothelial cells, GenBank NP—079032 (protein)
chain: QASSTSLSDLQSSRTPGVWKAEAEDTGKDPVGRNWCPYPMSKLVTLLALCKTEKFLIHSQQPCPQGAPDCQKVKVMYRMAHKPVYQVKQKVLTSLAWRCCPGYTGPNCEHHDSMAIPEPADPGDSHQEPQDGPVSFKPGHLAAVINEVEVQQEQQEHLLGDLQNDVHRVADSLPGLWKALPGNLTAAVMEANQTGHEFPDRSLEQVLLPHVDTFLQVHFSPIWRSFNQSLHSLTQAIRNLSLDVEANRQAISRVQDSAVARADFQELGAKFEAKVQENTQRVGQLRQDVEDRLHAQHFTLHRSISELQADVDTKLKRLHKAQEAPGTNGSLVLATPGAGARPEPDSLQARLGQLQRNLSELHMTTARREEELQYTLEDMRATLTRHVDEIKELYSESDETFDQISKVERQVEELQVNHTALRELRVILMEKSLIMEENKEEVERQLLELNLTLQHLQGGHADLIKYVKDCNCQKLYLDLDVIREGQRDATRALEETQVSLDERRQLDGSSLQALQNAVDAVSLAVDAHKAEGERARAATSRLRSQVQALDDEVGALKAAAAEARHEVRQLHSAFAALLEDALRHEAVLAALFGEEVLEEMSEQTPGPLPLSYEQIRVALQDAASGLQEQALGWDELAARVTALEQASEPPRPAEHLEPSHDAGREEAATTALAGLARELQSLSNDVKNVGRCCEAEAGAGAASLNASLHGLHNALFATQRSLEQHQRLFHSLFGNFQGLMEANVSLDLGKLQTMLSRKGKKQQKDLEAPRKRDKKEAEPLVDIRVTGPVPGALGAALWEAGSPVAFYASFSEGTAALQTVKFNTTYINIGSSYFPEHGYFRAPERGVYLFAVSVEFGPGPGTGQLVFGGHHRTPVCTTGQGSGSTATVFAMAELQKGERVWFELTQGSITKRSLSGTAFGGFLMFKT
- Effect on luciferase expression induced by pro TGF-β1 [2]: antagonize TGF-β activity at the of pro-TGF-β level

B3: emilin 1-KDEL: emilin 1 with KDEL sequence inserted upstream the STOP codon; retained intracellularly, not secreted (protein)
chain: ASYPPRGFSLYTGSSGALSPGGPQAQIAPRPASRHRNWCAYVVTRTVSCVLEDGVETYVKYQPCAWGQPQCPQSIMYRRFLRPRYRVAYKTVTDMEWRCCQGYGGDDCAESPAPALGPASSTPRPLARPARPNLSGSSAGSPLSGLGGEGPGESEKVQQLEEQVQSLTKELQGLRGVLQGLSGRLAEDVQRAVETAFNGRQQPADAAARPGVHETLNEIQHQLQLLDTRVSTHDQELGHLNNHHGGSSSSGGSRAPAPASAPPGPSEELLRQLEQRLQESCSVCLAGLDGFRRQQQEDRERLRAMEKLLASVEERQRHLAGLAVGRRPPQECCSPELGRRLAELERRLDVVAGSVTVLSGRRGTELGGAAGQGGHPPGYTSLASRLSRLEDRFNSTLGPSEEQEESWPGAPGGLSHWLPAARGRLEQLGGLLANVSGELGGRLDLLEEQVAGAMQACGQLCSGAPGEQDSQVSEILSALERRVLDSEGQLRLVGSGLHTVEAAGEARQATLEGLQEVVGRLQDRVDAQDETAAEFTLRLNLTAARLGQLEGLLQAHGDEGCGACGGVQEELGRLRDGVERCSCPLLPPRGPGAGPGVGGPSRGPLDGFSVFGGSSGSALQALQGELSEVILSFSSLNDSLNELQTTVEGQGADLADLGATKDRIISEINRLQQEATEHATESEERFRGLEEGQAQAGQCPSLEGRLGRLEGVCERLDTVAGGLQGLREGLSRHVAGLWAGLRETNTTSQMQAALLEKLVGGQAGLGRRLGALNSSLQLLEDRLHQLSLKDLTGPAGEAGPPGPPGLQGPPGPAGPPGSPGKDGQEGPIGPPGPQGEQGVEGAPAAPVPQVAFSAALSLPRSEPGTVPFDRVLLNDGGYYDPETGVFTAPLAGRYLLSAVLTGHRHEKVEAVLSRSNQGVARVDSGGYEPEGLENKPVAESQPSPGTLGVFSLILPLQAGDTVCVDLVMGQLAHSEEPLTIFSGALLYGDPELEHAKDEL
- Luciferase expression stimulated by transfected pro TGF-β ([2]; CAGA12-lux and CMV-lacZ, FIG. 6C): abolishes its inhibitory action on the effects of pro TGF-β

B4: emilin1ΔEMI: emilin protein lacking the EMI-domain, used as control (protein)
chain: ASYPPRGFSLYTGSSGALSPGGPQAQIAPRPASSPAPALGPASSTPRPLARPARPNLSGSSAGSPLSGLGGEGPGESEKVQQLEEQVQSLTKELQGLRGVLQGLSGRLAEDVQRAVETAFNGRQQPADAAARPGVHETLNEIQHQLQLLDTRVSTHDQELGHLNNHHGGSSSSGGSRAPAPASAPPGPSEELLRQLEQRLQESCSVCLAGLDGFRRQQQEDRERLRAMEKLLASVEERQRHLAGLAVGRRPPQECCSPELGRRLAELERRLDVVAGSVTVLSGRRGTELGGAAGQGGHPPGYTSLASRLSRLEDRFNSTLGPSEEQEESWPGAPGGLSHWLPAARGRLEQLGGLLANVSGELGGRLDLLEEQVAGAMQACGQLCSGAPGEQDSQVSEILSALERRVLDSEGQLRLVGSGLHTVEAAGEARQATLEGLQEVVGRLQDRVDAQDETAAEFTLRLNLTAARLGQLEGLLQAHGDEGCGACGGVQEELGRLRDGVERCSCPLLPPRGPGAGPGVGGPSRGPLDGFSVFGGSSGSALQALQGELSEVILSFSSLNDSLNELQTTVEGQGADLADLGATKDRIISEINRLQQEATEHATESEERFRGLEEGQAQAGQCPSLEGRLGRLEGVCERLDTVAGGLQGLREGLSRHVAGLWAGLRETNTTSQMQAALLEKLVGGQAGLGRRLGALNSSLQLLEDRLHQLSLKDLTGPAGEAGPPGPPGLQGPPGPAGPPGSPGKDGQEGPIGPPGPQGEQGVEGAPAAPVPQVAFSAALSLPRSEPGTVPFDRVLLNDGGYYDPETGVFTAPLAGRYLLSAVLTGHRHEKVEAVLSRSNQGVARVDSGGYEPEGLENKPVAESQPSPGTLGVFSLILPLQAGDTVCVDLVMGQLAHSEEPLTIFSGALLYGDPELEHA
- Effect on luciferase expression induced by pro TGF-β1 [2]: showed no effect on pro TGF-β
